Assay results as given in patent US20240116985A1 (published 2024).
Starred links: 1 amine or outer side, 2 acyl side, 3 side chain; linkers in the order of their positions; H or OH if unused. Positions of bridges follow the written chain, without caps; N, C: chain ends. Non-standard residues stand in square brackets, D forms with d. Primed or numbered codes have the meaning given here. *: point of attachment. PyrS2″ = (S)-3-amino-1-((pent-4-en-1-yloxy)carbonyl)pyrrolidine-3-carboxylic acid (stapling residue), C=CCCCOC(=O)N1CC[C@@](N[*:1])(C(=O)[*:2])C1; (bismethoxyethylamine)GlnR = [bismethoxyethylamine]GlnR, N5,N5-bis(2-methoxyethyl)-L-glutamine, COCCN(CCOC)C(=O)CC[C@H](N[*:1])C(=O)[*:2]; B5(16) = 2-amino-2-(pent-4-en-1-yl)hept-6-enoic acid = 2,2-bis(4-pentenyl)glycine (stitching residue), C=CCCCC(CCCC=C)(N[*:1])C(=O)[*:2]; B5(4) = 2,2-bis(4-pentenyl)glycine = 2-amino-2-(pent-4-en-1-yl)hept-6-enoic acid (stitching residue), C=CCCCC(CCCC=C)(N[*:1])C(=O)[*:2]; (AcPpz)GlnR = [AcPpz]GlnR, (S)-5-(4-acetylpiperazin-1-yl)-2-amino-5-oxopentanoic acid, CC(=O)N1CCN(C(=O)CC[C@H](N[*:1])C(=O)[*:2])CC1; (4Pippip)GlnR″ = (S)-5-([1,4'-bipiperidin]-1'-yl)-2-amino-5-oxopentanoic acid, O=C(CC[C@H](N[*:1])C(=O)[*:2])N1CCC(N2CCCCC2)CC1; PyrS2 = (S)-3-amino-1-((pent-4-en-1-yloxy)carbonyl)pyrrolidine-3-carboxylic acid, C=CCCCOC(=O)N1CC[C@@](N[*:1])(C(=O)[*:2])C1; PyrS1 = (S)-3-amino-1-((but-3-en-1-yloxy)carbonyl)pyrrolidine-3-carboxylic acid, C=CCCOC(=O)N1CC[C@@](N[*:1])(C(=O)[*:2])C1; (AcPpz)GlnR″ = (S)-5-(4-acetylpiperazin-1-yl)-2-amino-5-oxopentanoic acid, CC(=O)N1CCN(C(=O)CC[C@H](N[*:1])C(=O)[*:2])CC1; PyrS = (S)-1-((allyloxy)carbonyl)-3-aminopyrrolidine-3-carboxylic acid, C=CCOC(=O)N1CC[C@@](N[*:1])(C(=O)[*:2])C1; (Morph)GlnR″ = [Morph]GlnR, (S)-2-amino-5-morpholino-5-oxopentanoic acid, O=C(CC[C@H](N[*:1])C(=O)[*:2])N1CCOCC1; MorphAsn = (S)-2-amino-4-morpholino-4-oxobutanoic acid, O=C(C[C@H](N[*:1])C(=O)[*:2])N1CCOCC1; B6 = 2-amino-2-(hex-5-en-1-yl)oct-7-enoic acid, C=CCCCCC(CCCCC=C)(N[*:1])C(=O)[*:2]; Me2Asn = listed as N4-methyl-L-asparagine, CNC(=O)C[C@H](N[*:1])C(=O)[*:2]; 5hexenyl = N-terminal hex-5-enoic acid (acyl cap), C=CCCCC(=O)*; Phe(3-COOH) = N[C@@H](Cc1cccc(C(=O)O)c1)C(=O)O; Phe(2-CF3) = N[C@@H](Cc1ccccc1C(F)(F)F)C(=O)O; Phe(2-Cl) = N[C@@H](Cc1ccccc1Cl)C(=O)O; dαMeGly(allyl) = C=CC[C@@](C)(N)C(=O)O; Bta = N[C@@H](Cc1csc2ccccc12)C(=O)O; αAllylPro = C=CC[C@@]1(C(=O)O)CCCN1; Morpholinoacetyl = O=C(CN1CCOCC1)*; tBuAla = CC(C)(C)C[C@H](N)C(=O)O; 3Thi = N[C@@H](Cc1ccsc1)C(=O)O; Cha = N[C@@H](CC1CCCCC1)C(=O)O; AllylGly = C=CC[C@H](N)C(=O)O; R5 = C=CCCC[C@@](C)(N)C(=O)O; Nle = CCCC[C@H](N)C(=O)O; Abu = CC[C@H](N)C(=O)O; Aib = CC(C)(N)C(=O)O

T1: B-cat-Halo (beta-catenin HaloTag construct expressed in HEK293 cells) (UniProt P35222 1-781)
T1 sequence (looked up): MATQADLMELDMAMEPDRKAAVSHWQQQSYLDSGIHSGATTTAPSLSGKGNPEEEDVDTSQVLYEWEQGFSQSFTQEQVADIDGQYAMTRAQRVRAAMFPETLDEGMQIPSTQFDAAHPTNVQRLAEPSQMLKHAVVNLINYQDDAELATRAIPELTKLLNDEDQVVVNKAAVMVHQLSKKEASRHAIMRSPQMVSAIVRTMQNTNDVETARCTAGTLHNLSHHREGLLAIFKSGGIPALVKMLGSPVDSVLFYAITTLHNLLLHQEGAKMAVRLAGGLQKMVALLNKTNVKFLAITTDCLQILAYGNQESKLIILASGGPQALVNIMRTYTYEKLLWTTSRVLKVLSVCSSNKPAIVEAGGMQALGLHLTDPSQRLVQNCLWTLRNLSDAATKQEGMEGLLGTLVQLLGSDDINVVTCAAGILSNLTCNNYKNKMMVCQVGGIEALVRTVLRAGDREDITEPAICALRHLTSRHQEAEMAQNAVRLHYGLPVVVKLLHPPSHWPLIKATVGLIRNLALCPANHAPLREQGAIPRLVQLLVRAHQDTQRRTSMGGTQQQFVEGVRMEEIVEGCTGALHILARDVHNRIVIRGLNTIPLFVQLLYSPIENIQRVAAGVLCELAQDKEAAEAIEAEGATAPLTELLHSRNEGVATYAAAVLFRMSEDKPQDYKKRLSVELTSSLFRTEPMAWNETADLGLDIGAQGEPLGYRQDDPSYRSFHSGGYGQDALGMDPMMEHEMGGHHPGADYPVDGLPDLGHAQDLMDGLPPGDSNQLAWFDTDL

T2: B-cat-Halo (beta-catenin HaloTag construct expressed in HEK293 cells) (UniProt P35222 1-781)
T2 sequence (looked up): T1 sequence (looked up)

T3: B-cat-Halo (beta-catenin HaloTag fusion expressed in HEK293 cells) (UniProt P35222 1-781)
T3 sequence (looked up): T1 sequence (looked up)

T4: B-cat-Halo (UniProt P35222 1-781)
T4 sequence (looked up): T1 sequence (looked up)

B1: I-2529 (peptide)
peptide: 5hexenyl-[αAllylPro]D[AllylGly][B5(4)]D[Phe(3-COOH)]AAFL[PyrS2″][Phe(2-CF3)][Bta]Q-NH2
modifications: staple (positions not given here); not fully specified (bridges); printed as 5hexenyl-PL3-Asp-AllylGly-B5-Asp-3COOHF-Ala-Ala-Phe-Leu-PyrS2-2F3MeF-BztA-Gln-NH2; also: staple C=C reduced to CH2-CH2, staple partners not given here
B2: I-2523 (peptide)
peptide: Ac-[αAllylPro]N[Cha][B5(4)]DQKAFL[PyrS2]F[Bta][MorphAsn]-NH2
modifications: staple 1-4, 4-11; not fully specified (residue 7); printed as Ac-PL3-Asn-Cha-B5-Asp-Gln-[Phc]Lys-Ala-Phe-Leu-PyrS2-Phe-BztA-MorphAsn-NH2
B3: I-2565 (peptide)
peptide: Ac-[R5]D[tBuAla][B5(4)]D[Phe(3-COOH)]AAFL[PyrS2″][Phe(2-CF3)][Bta]Q-NH2
modifications: staple 1-4, 4-11; not fully specified; printed as Ac-R5-Asp-Npg-B5-Asp-3COOHF-Ala-Ala-Phe-Leu-PyrS2-2F3MeF-BztA-Gln-NH2

Each binder was assayed against T1, B-cat-Halo (beta-catenin HaloTag …) (assay: cell-based or functional assay).

Row | Binder | NanoBRET Abs IC50
1 | Ac-[αAllylPro]D[tBuAla][B5(4)]D[Phe(3-COOH)][Aib]AFL[PyrS2″][3Thi][Bta][tBuAla]-NH2 (staple 1-4, 4-11) [I-2194] | 8.8 µM
2 | Ac-[αAllylPro]D[tBuAla][B5(4)]D[Phe(3-COOH)][Me2Asn]AFL[PyrS2″][3Thi][Bta][tBuAla]-NH2 (staple 1-4, 4-11) [I-2196] | 39.3 µM
3 | Ac-[αAllylPro]D[tBuAla][B5(4)]D[Phe(3-COOH)][Nle]AFL[PyrS2″][3Thi][Bta][tBuAla]-NH2 (staple 1-4, 4-11) [I-2193] | 39.9 µM
4 | Ac-[αAllylPro]D[tBuAla][B5(4)]D[Phe(3-COOH)]SAFL[PyrS2″][3Thi][Bta][tBuAla]-NH2 (staple 1-4, 4-11) [I-2195] | 21 µM

What follows are binders tested against T2, B-cat-Halo (beta-catenin HaloTag …) (assay: cell-based or functional assay).

Row | Binder | NanoBRET Abs IC50 (uM); Bcat-Halo / TCF4-Luc in HEK293 cells
5 | B1 | 33.2 µM
6 | Ac-[αAllylPro]D[tBuAla][B6]D[Phe(3-COOH)]AAFL[PyrS2][Phe(2-CF3)][Bta]Q-NH2 (staple 1-4, 4-11) [I-2513] | > 20 µM
7 | Ac-[αAllylPro]D[tBuAla][B6]D[Phe(3-COOH)]QAFL[PyrS2][Phe(2-CF3)][Bta]A-NH2 (staple 1-4, 4-11) [I-2517] | 30 µM
8 | Ac-[αAllylPro]D[tBuAla][B6]D[Phe(3-COOH)]QAFL[PyrS1][Phe(2-CF3)][Bta]A-NH2 (staple 1-4, 4-11) [I-2510] | 7.8 µM
9 | B2 | > 20 µM
10 | Ac-[αAllylPro]N[Cha][B5(4)]DQK(mPEG4)AFL[PyrS2]F[Bta][MorphAsn]-NH2 (staple 1-4, 4-11) [I-2526] | > 20 µM
11 | Ac-[αAllylPro]N[Cha][B5(4)]DQK(Morpholinoacetyl)AFL[PyrS2]F[Bta][MorphAsn]-NH2 (staple 1-4, 4-11) [I-2527] | > 20 µM
12 | Ac-[αAllylPro]D[tBuAla][B5(4)]D[Phe(3-COOH)]AAFL[PyrS2″][Phe(2-CF3)][Bta][Me2Gln]-NH2 (staple 1-4, 4-11) [I-2532] | 4.5 µM
13 | Ac-[αAllylPro]D[tBuAla][B6]D[Phe(3-COOH)]QAFL[PyrS2][Phe(2-CF3)][Bta]A-NH2 (staple 1-4, 4-11) [I-2515] | > 20 µM
14 | Ac-[αAllylPro]N[Cha][B5(4)]DQK(Ac)AFL[PyrS2]F[Bta][MorphAsn]-NH2 (staple 1-4, 4-11) [I-2522] | > 20 µM
15 | Ac-[αAllylPro]D[tBuAla][B6]D[Phe(3-COOH)]AAFL[PyrS][Phe(2-CF3)][Bta]Q-NH2 (staple 1-4, 4-11) [I-2518] | > 20 µM

Each binder was assayed against T3, B-cat-Halo (beta-catenin HaloTag fusion …) (assay: cell-based or functional assay).

Row | Binder | NanoBRET Abs IC50
16 | Ac-P[dαMeGly(allyl)]D[tBuAla][B5(4)]D[Phe(3-COOH)]AAFL[PyrS2″][Phe(2-CF3)][Bta]Q-NH2 (staple 5-12, 2-5; also: -CH=CH- in each staple reduced to -CH2-CH2-) [I-2572] | > 20 µM
17 | Ac-[αAllylPro]D[tBuAla][B5(4)]D[Phe(3-COOH)][Aib]AF[Nle][PyrS2″][3Thi][Bta][(4Pippip)GlnR]-NH2 (staple 1-4, 4-11) [I-2555] | 22.1 µM
18 | B3 | 21 µM
19 | Ac-[αAllylPro]D[tBuAla][B5(4)]D[Phe(3-COOH)][Aib]AF[Abu][PyrS2″][3Thi][Bta][(AcPpz)GlnR″]-NH2 (staple 1-4, 4-11) [I-2561] | 7.2 µM
20 | Ac-[αAllylPro]D[tBuAla][B5(4)]D[Phe(3-COOH)][Aib]AF[Abu][PyrS2″][3Thi][Bta][(Morph)GlnR″]-NH2 (staple 1-4, 4-11) [I-2558] | 14.7 µM
21 | Ac-[R5]D[tBuAla][B5(4)]D[Phe(3-COOH)]AAFL[PyrS2″][Phe(2-CF3)][Bta]Q-NH2 (staple 1-4, 4-11; also: -CH=CH- in each staple reduced to -CH2-CH2-) [I-2571] | 24 µM
22 | Ac-[αAllylPro]D[tBuAla][B5(4)]D[Phe(3-COOH)][Aib]AF[Nle][PyrS2″][3Thi][Bta][(Morph)GlnR″]-NH2 (staple 1-4, 4-11) [I-2553] | 8.2 µM
23 | Ac-[αAllylPro]D[tBuAla][B5(4)]D[Phe(3-COOH)][Aib]AF[Nle][PyrS2″][3Thi][Bta][(bismethoxyethylamine)GlnR]-NH2 (staple 1-4, 4-11) [I-2554] | 3.3 µM
24 | Ac-[αAllylPro]D[tBuAla][B5(4)]D[Phe(3-COOH)][Aib]AF[Nle][PyrS2″][3Thi][Bta][(AcPpz)GlnR]-NH2 (staple 1-4, 4-11) [I-2556] | 7 µM
25 | Ac-[αAllylPro]D[tBuAla][B5(4)]D[Phe(3-COOH)][Aib]AF[Nle][PyrS2″][3Thi][Bta][(4F3CPip)GlnR]-NH2 (staple 1-4, 4-11) [I-2557] | 19.6 µM
26 | Ac-[αAllylPro]D[tBuAla][B5(4)]D[Phe(3-COOH)][Aib]AF[Abu][PyrS2″][3Thi][Bta][(bismethoxyethylamine)GlnR]-NH2 (staple 1-4, 4-11) [I-2559] | 3.8 µM
27 | Ac-[αAllylPro]D[tBuAla][B5(4)]D[Phe(3-COOH)][Aib]AF[Abu][PyrS2″][3Thi][Bta][(4Pippip)GlnR″]-NH2 (staple 1-4, 4-11) [I-2560] | 19.3 µM
28 | Ac-[dαMeGly(allyl)]D[tBuAla][B5(4)]D[Phe(3-COOH)]AAFL[PyrS2″][Phe(2-CF3)][Bta]Q-NH2 (staple 1-4, 4-11) [I-2563] | 17 µM

What follows are binders tested against T4, B-cat-Halo (assay: cell-based or functional assay).

Row | Binder | NanoBRET Abs IC50
29 | Ac-[αAllylPro]D[Cha][B5(16)]DDAAFN[PyrS2″][Phe(2-Cl)][Bta]Q-NH2 (staple 1-4, 4-11) [I-1040] | 9.3 µM
